Source: US20080254496A1, “Methods for Detection of Fungal Disease” (priority 2005, published 2008)

Assay: D-arabinitol oxidase enzyme activity assay (H2O2 formation coupled to horse radish peroxidase/TMB, absorbance at 650 nm)
Format: biochemical
Settings: ratio of oxidase activity with sorbitol as substrate to DA as substrate; protein extracts from E. coli, 10 mM sugar alcohol, pH 6.5, 23° C.
Protocol: The D-arabinitol oxidase enzyme activity is assayed by the formation of H2O2 during the enzyme reaction (FIG. 1) as coupled with a peroxidase indicator reaction that catalyzes the oxidation of 3,3′,5,5′-tetramethylbenzidine hydrochloride (TMB), producing a colored product. An increase in absorbance is a direct measure of D-arabinitol oxidase activity. Enzyme activity is assayed in crude extracts and in purified protein preparations. […] In this reaction, formation of H2O2 results in the formation of blue color measurable by reading the absorbance at 650 nanometers (nm). Absorbance at 650 nm is followed kinetically using a Tecan Rainbow spectrophotometer at room temperature (23° C.). Milli-absorbance units per minute (mA/min) are calculated as the increase in absorbance at 650 nm/minute×1000. It is recognized that researchers skilled in the art may perform the assay as an end-point assay, by stopping reactions at various times with a solution of acid to produce a yellow color, and reading the absorbance at 450 nm. […]
DNA sequences encoding an SaOx protein (SEQ ID NO:3) are used as starting material for error prone PCR. Error-prone PCR is accomplished by performing PCR from DNA templates using a non-proof reading DNA polymerase such as Taq Polymerase, or by using a GeneMorph II Random Mutagenesis Kit (Stratagene). […]

B1: SaOX (wild type + His-tag): Streptomyces avermitilis oxidase (SEQ ID NO:4), wild type with C-terminal His-tag (STOP423LEHHHHHH) (protein, listed as Streptomyces avermitilis)
chain: MTDAGTALTNWAGNITYSAKELHRPQSLDALRALVADSAKVRVLGSGHSFNEIAEPGADGVLLSLTALPPSVEVDTAARTVRVAGGVRYAELARVVHGHGLALPNMASLPHISVAGSVATGTHGSGVTNGSLASAVREVELVTADGSAVRIGRGDDRFDGAVTALGALGVVTALTLDLEPDYRVAQQVFTELPLAGLDFDAVAASAYSVSLFTGWRTSGFAQVWLKRRTDRPSADFPWAAPATEAMHPVPGMPAVNCTQQFGVPGPWHERLPHFRAEFTPSSGAELQSEYLLPRPYALDALHALDAVRETVAPVLQICEVRTVAADAQWLSPAYGRDTVALHFTWVEDLAAVLPVVRRVEEALDPFDPRPHWGKVFAVPARVLRGRYPRLGDFRALVDSLDPGGKFTNAFVREVLGSGDRPS
modifications: C-terminal LEHHHHHH His-tag
  Sorb/DA: 14.8
